Data from PMC4018787 (The Journal of Cell Biology, 2014).

Key:
[1] = target: T1, recombinant fibrinogen-like (FBG) domain of tenascin-X (TNX), produced in mammalian cells (UniProt O18977 3911-4135); assay: ELISA
T1 sequence (looked up): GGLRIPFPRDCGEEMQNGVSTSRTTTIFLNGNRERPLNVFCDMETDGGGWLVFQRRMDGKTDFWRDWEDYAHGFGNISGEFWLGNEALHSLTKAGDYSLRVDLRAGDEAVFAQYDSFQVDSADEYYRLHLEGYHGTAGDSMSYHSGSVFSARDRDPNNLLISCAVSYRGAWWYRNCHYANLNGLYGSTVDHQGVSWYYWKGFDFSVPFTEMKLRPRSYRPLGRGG

[2] = target: recombinant full-length tenascin-X (TNX) (UniProt O18977 23-4135); assay: ELISA

B1: inserted (I) domain of the α11 integrin chain fused to GST (domain or fragment, human, UniProt Q9UKX5-1 160-358, looked up)
chain: QTYMDIVIVLDGSNSIYPWVEVQHFLINILKKFYIGPGQIQVGVVQYGEDVVHEFHLNDYRSVKDVVEAASHIEQRGGTETRTAFGIEFARSEAFQKGGRKGAKKVMIVITDGESHDSPDLEKVIQQSERDNVTRYAVAVLGYYNRRGINPETFLNEIKYIASDPDDKHFFNVTDEAALKDIVDALGDRIFSLEGTNKN
binding result [1]: binds | binding result [2]: binds
